Data published in patent publication US5602021.

Columns and labels:
[1] = target: pIII coat protein of bacteriophage CA2000 (filamentous bacteriophage (helper phage R408 derivative))
[2] = target: pIII coat protein of bacteriophage CA2000 (OMP1) (filamentous bacteriophage (helper phage R408 derivative))
[3] = target: pIII coat protein of bacteriophage CA2000 (OMP2) (filamentous bacteriophage (helper phage R408 derivative))
[4] = target: pIII coat protein of bacteriophage CA1051 (filamentous bacteriophage (helper phage R408 derivative))
[5] = target: pIII coat protein of bacteriophage TARGETBACK (filamentous bacteriophage (helper phage R408 derivative))
[6] = target: pIII coat protein of bacteriophage CA2000 (filamentous bacteriophage (helper phage R408 derivative)); remark: listed apart in the source
[7] = target: pIII coat protein of bacteriophage CA1000 (filamentous bacteriophage (helper phage R408 derivative))

Row | Substance | infective phage particles (ampicillin resistant transducing units) from OmpT mediated maturation of pIII [1] [ApR T.U./ml] | infective phage particles (ampicillin resistant transducing units) from OmpT mediated maturation of pIII [2] [ApR T.U./ml] | infective phage particles (ampicillin resistant transducing units) from OmpT mediated maturation of pIII [3] [ApR T.U./ml] | infective phage particles (OmR transducing units) [4] [OmR T.U./ml] | infective phage particles (OmR transducing units) [5] [OmR T.U./ml] | infective phage particles (OmR transducing units) [6] [OmR T.U./ml] | infective phage particles (OmR transducing units) [7] [OmR T.U./ml]
1 | OmpT protease (from UniProt P09169) (enzyme) | < 50 | 2500 | 18000 |  |  |  | 
2 | host encoded leader peptidase (from UniProt P00803) (enzyme) |  |  |  | 30000 | 1000 | < 50 | 1e+08
